In patent publication US20190077844A1 (published 2019):
Substitutions are numbered along the chain they refer to.

B1: ADX_6077_F02 DG→SG mutant, alkylated (designed binder)
chain: VSDVPRDLEVVAATPTSLLISWSDDYHAHRYYRITYGETGGNSPVQEFTVPGEHVTATISGLKPGVDYTITVYAVTYSGEKAATDWSISINYRTPC
modifications: C-terminal cysteine alkylated
notes: also called P1-055668
B2: ADX_6077_F02 DG→DA mutant, alkylated (designed binder)
chain: GVSDVPRDLEVVAATPTSLLISWSDDYHAHRYYRITYGETGGNSPVQEFTVPGEHVTATISGLKPGVDYTITVYAVTYDAEKAATDWSISINYRTPC
modifications: C-terminal cysteine alkylated
notes: also called P1-055660
B3: ADX_6077_F02 DG→DS mutant, alkylated (designed binder)
chain: B2 chain with A80S
modifications: C-terminal cysteine alkylated
notes: also called P1-055667
B4: ADX_6077_F02 DG→DL mutant, alkylated (designed binder)
chain: B2 chain with A80L
modifications: C-terminal cysteine alkylated
notes: also called P1-055671
B5: ADX_6077_F02 DG→AG mutant, alkylated (designed binder)
chain: B2 chain with D79A, A80G
modifications: C-terminal cysteine alkylated
notes: also called P1-055669
B6: ADX_6077_F02 DG→EG mutant, alkylated (designed binder)
chain: B2 chain with D79E, A80G
modifications: C-terminal cysteine alkylated
notes: also called P1-055673
B7: ADX_6077_F02 DG→DV mutant, alkylated (designed binder)
chain: B2 chain with A80V
modifications: C-terminal cysteine alkylated
notes: also called P1-055672
B8: ADX_6077_F02 DG→GG mutant, alkylated (designed binder)
chain: B2 chain with D79G, A80G
modifications: C-terminal cysteine alkylated
notes: also called P1-055670

Each binder was assayed against T1, Human glypican-3 on cells (Huh7, Hep3B, H446, HepG2; Hep3B xenograft tissue) (human, UniProt P51654 25-554) (assay: flow cytometry on Huh7 cells, EC50 ratio to parent Adnectin).
T1 construct: Endogenous GPC3 of human tumor cell lines; also called huGPC3 on cells; GPC3 receptor
T1 sequence (P51654 25-554 limits assumed): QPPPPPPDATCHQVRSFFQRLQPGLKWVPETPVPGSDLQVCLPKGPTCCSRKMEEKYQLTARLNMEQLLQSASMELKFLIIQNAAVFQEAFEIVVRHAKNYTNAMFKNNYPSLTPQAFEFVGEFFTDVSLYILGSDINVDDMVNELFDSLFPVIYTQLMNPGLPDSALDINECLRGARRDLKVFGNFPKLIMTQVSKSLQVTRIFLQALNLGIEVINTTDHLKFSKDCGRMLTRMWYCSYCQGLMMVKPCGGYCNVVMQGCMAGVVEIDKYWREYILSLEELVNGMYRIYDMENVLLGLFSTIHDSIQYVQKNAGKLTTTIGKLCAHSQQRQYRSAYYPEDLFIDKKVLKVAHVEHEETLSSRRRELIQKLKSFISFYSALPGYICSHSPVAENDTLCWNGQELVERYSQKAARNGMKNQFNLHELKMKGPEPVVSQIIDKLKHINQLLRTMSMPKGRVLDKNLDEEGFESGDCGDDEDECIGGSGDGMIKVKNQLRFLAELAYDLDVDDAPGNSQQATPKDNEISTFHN
Procedure: The binding of DG variants to huGPC3 in DG GPC3 AdxDCs mutants were evaluated by flow cytometry for binding to Huh7 carcinoma cells grown in DMEM media with 10% FBS. Cells were harvested using Versene, an EDTA cell dissociation solution from Lonza, Cat. #17-711E. Tumor cells (1E5 cells/reaction) were suspended in FACS buffer (PBS, 1% BSA, 0.05% Na Azide) and mixed with a serial dilution of AdxDC for one hour on ice. Cells were washed three times with FACS buffer, and bound AdxDC was detected with an in house anti-scaffold monoclonal Ab and PE-conjugated Antibody from (RnD Systems), cat#NL007, and read on a flow cytometer.
For B1, the “huGPC3 on cells EC50 (mutant/parent)” value was 1.1 ratio mutant/parent. With B2 the “huGPC3 on cells EC50 (mutant/parent)” value was 1.3 ratio mutant/parent. B3 was tested, and the “huGPC3 on cells EC50 (mutant/parent)” value was 1.4 ratio mutant/parent. For B4, the “huGPC3 on cells EC50 (mutant/parent)” value was 1.7 ratio mutant/parent. With B5 the “huGPC3 on cells EC50 (mutant/parent)” value was 1.1 ratio mutant/parent. With B6 the “huGPC3 on cells EC50 (mutant/parent)” value was 1.6 ratio mutant/parent.

Each binder was assayed against T2, Recombinant murine glypican-3 (aa 25-557) (R&D Systems) (murine, UniProt Q8CFZ4 25-557) (assay: SPR 1-point off-rate, ratio to parental ADX_6077_F02).
T2 construct: also called muGPC3; murine GPC3
T2 sequence (Q8CFZ4 25-557 limits assumed, form in doubt): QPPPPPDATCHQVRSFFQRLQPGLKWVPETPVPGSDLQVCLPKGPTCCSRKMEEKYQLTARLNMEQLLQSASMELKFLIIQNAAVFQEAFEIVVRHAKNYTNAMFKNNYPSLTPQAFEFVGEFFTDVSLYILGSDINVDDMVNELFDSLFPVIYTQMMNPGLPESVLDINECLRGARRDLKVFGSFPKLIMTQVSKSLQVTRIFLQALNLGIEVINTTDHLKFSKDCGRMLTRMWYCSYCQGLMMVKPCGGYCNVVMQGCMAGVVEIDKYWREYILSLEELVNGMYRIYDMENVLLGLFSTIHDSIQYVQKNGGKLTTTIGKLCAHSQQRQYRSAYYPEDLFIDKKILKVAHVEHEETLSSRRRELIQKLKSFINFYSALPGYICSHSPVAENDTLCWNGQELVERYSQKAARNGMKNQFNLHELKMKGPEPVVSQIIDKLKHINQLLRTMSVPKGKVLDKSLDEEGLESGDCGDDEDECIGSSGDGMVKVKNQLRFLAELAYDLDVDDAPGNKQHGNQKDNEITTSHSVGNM
Procedure: (§1) Surface plasmon resonance (SPR) was performed to calculate off-rates (kd) and binding affinities of α-GPC3 adnectins and tubulysin-conjugated AdxDCs using a Biacore T100 instrument (GE Healthcare). […] SPR experiments were conducted at 37° C. using HBS-P+(10 mM HEPES, 150 mM NaCl, 0.05% (v/v) Surfactant P20, pH 7.4) running buffer (GE Healthcare). […] For off-rate measurements, single 200 nM adnectin/AdxDC concentrations were injected using identical conditions. One 30s injection of 10 mM glycine pH 1.7 was used to remove bound adnectin and regenerate the GPC₃ surfaces between assay cycles.
(§2) Rate constants kₐ (kₒₙ) and kd (koff) were derived from reference-subtracted sensorgrams fit to a 1:1 binding model in Biacore T100 Evaluation Software v2.0.4 (GE Healthcare). The affinity constant, KD was calculated from the ratio of rate constants kd/kₐ.
(§3) One-hundred to one-hundred-fifty milligrams of each of the eight mutants was made, purified and alkylated as previously above. Three to five milligrams of each of eight alkylated variants at 1-3 mg/mL were subjected to SEC, DSC, GPC3 binding (SPR 1 pt off-rates), MS and HIC.
In the case of B1, the “muGPC3 koff (mut/par)” value is reported as 4.8 ratio mutant/parent. B2 was tested, and the “muGPC3 koff (mut/par)” value was 3.7 ratio mutant/parent. With B3 the “muGPC3 koff (mut/par)” value was 3.3 ratio mutant/parent. For B7, the “muGPC3 koff (mut/par)” value was 7 ratio mutant/parent. B4 was tested, and the “muGPC3 koff (mut/par)” value was 3.1 ratio mutant/parent. With B8 the “muGPC3 koff (mut/par)” value was 12 ratio mutant/parent. B5 was tested, and the “muGPC3 koff (mut/par)” value was 5.5 ratio mutant/parent. In the case of B6, the “muGPC3 koff (mut/par)” value is reported as 5.1 ratio mutant/parent.

Each binder was assayed against T3, Recombinant human glypican-3 (aa 1-559), His-tagged (R&D Systems) (human, UniProt P51654 25-559) in the same assay as above.
T3 construct: also called huGPC3; human GPC3
T3 sequence (P51654 other isoform, or with tags, fused parts or gaps): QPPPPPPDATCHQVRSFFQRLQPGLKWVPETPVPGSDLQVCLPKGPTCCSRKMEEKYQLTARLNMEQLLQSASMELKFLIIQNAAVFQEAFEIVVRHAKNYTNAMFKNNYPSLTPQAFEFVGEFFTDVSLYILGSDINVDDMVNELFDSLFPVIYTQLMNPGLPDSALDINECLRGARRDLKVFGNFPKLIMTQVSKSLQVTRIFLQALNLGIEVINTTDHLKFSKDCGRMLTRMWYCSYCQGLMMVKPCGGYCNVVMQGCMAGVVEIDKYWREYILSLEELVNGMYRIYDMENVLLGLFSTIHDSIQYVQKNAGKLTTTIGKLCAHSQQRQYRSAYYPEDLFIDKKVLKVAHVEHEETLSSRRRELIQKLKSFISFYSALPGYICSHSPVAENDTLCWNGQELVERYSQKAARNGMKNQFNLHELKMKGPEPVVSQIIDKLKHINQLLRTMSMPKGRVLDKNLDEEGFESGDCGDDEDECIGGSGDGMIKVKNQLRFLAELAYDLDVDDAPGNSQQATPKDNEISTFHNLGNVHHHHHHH
Procedure: as §1, §2, §3
B1 was tested, and the “huGPC3 koff (mut/par)” value was 5.2 ratio mutant/parent. In the case of B2, the “huGPC3 koff (mut/par)” value is reported as 3.9 ratio mutant/parent. For B3, the “huGPC3 koff (mut/par)” value was 3.5 ratio mutant/parent. In the case of B7, the “huGPC3 koff (mut/par)” value is reported as 7.9 ratio mutant/parent. With B4 the “huGPC3 koff (mut/par)” value was 3.6 ratio mutant/parent. B8 was tested, and the “huGPC3 koff (mut/par)” value was 14 ratio mutant/parent. With B5 the “huGPC3 koff (mut/par)” value was 5.9 ratio mutant/parent. B6 was tested, and the “huGPC3 koff (mut/par)” value was 5.4 ratio mutant/parent.
